In general, stoichiometry N refers to a count of units in the complex or per binding partner.

We go through 3 molecules from publication PMC12215978, “CryoEM structure of the SLFN14 endoribonuclease reveals insight into RNA binding and cleavage” (Nature Communications, 2025).

Where “and” joins values, the source holds several entries; their conditions need not be identical. Identical values can stand only once.

For data set [1], the target named is isolated SLFN14 CTD (SLFN14^CTD) (human). As to the kind of experiment: SEC; Superdex-200 Increase 3.2/300, 5–10 μM protein, storage buffer (20 mM Tris pH 7.4, 150 mM NaCl, 5 mM MgCl2, 1 mM TCEP), calibrated with gel filtration standards. Background: SEC sorts molecules by how far they enter the pores of the column.
The target of data set [2] is SLFN14^ΔCTD, SLFN14 C-terminal truncation that lacks the CTD (human). Described as above.
Data set [3] deals with the molecule itself. Kind of data set: mass photometry; purified SLFN14 in solution; also exposed to high salt conditions; methods not shown.

In data set [1], “isolated SLFN14 CTD (SLFN14^CTD) (domain or fragment)” came in with a stoichiometry N of 2.
“SLFN14^ΔCTD, SLFN14 C-terminal truncation that lacks the CTD (domain or fragment)” yielded a stoichiometry N in data set [2] of 2.

B1: full-length recombinant human SLFN14 (residues 1–912), C-terminally Flag-tagged (enzyme, UniProt P0C7P3 1-912, looked up)
chain: MESLKTDTEMPYPEVIVDVGRVIFGEENRKKMTNSCLKRSENSRIIRAICALLNSGGGVIKAEIDDKTYSYQCHGLGQDLETSFQKLLPSGSQKYLDYMQQGHNLLIFVKSWSPDVFSLPLRICSLRSNLYRRDVTSAINLSASSALELLREKGFRAQRGRPRVKKLHPQQVLNRCIQEEEDMRILASEFFKKDKLMYKEKLNFTESTHVEFKRFTTKKVIPRIKEMLPHYVSAFANTQGGYVLIGVDDKSKEVVGCKWEKVNPDLLKKEIENCIEKLPTFHFCCEKPKVNFTTKILNVYQKDVLDGYVCVIQVEPFCCVVFAEAPDSWIMKDNSVTRLTAEQWVVMMLDTQSAPPSLVTDYNSCLISSASSARKSPGYPIKVHKFKEALQRHLFPVTQEEVQFKPESLCKKLFSDHKELEGLMKTLIHPCSQGIVIFSRSWAGDVGFRKEQNVLCDALLIAVNSPVVLYTILIDPNWPGGLEYARNTAHQLKQKLQTVGGYTGKVCIIPRLIHLSSTQSRPGEIPLRYPRSYRLADEEEMEDLLQALVVVSLSSRSLLSDQMGCEFFNLLIMEQSQLLSESLQKTRELFIYCFPGVRKTALAIKIMEKIKDLFHCKPKEILYVCESDSLKDFVTQQTTCQAVTRKTFMQGEFLKIKHIVMDETENFCSKYGNWYMKAKNITHPKAKGTGSENLHHGILWLFLDPFQIHHADVNGLPPPSAQFPRKTITSGIHCALEIAKVMKEEMKRIKENPPSNMSPDTLALFSETAYEEATCAQALPGVCETKTNLTTEQIANYVARKCHSLFQCGYLPKDIAILCRRGEDRGRYRLALLKAMELIETHRPSEVVFSPATGVWGSHIVLDSIQQFSGLERTVVFGLSPECDQSEEFHKLCFASRAIKHLYLLYEKRAAY
notes: human SLFN14, full length, residues 1-912; The sample keeps co-purified cellular nucleic acid, and the structure has RNA in the cleft; also called SLFN14 wild-type (WT); Schlafen 14; not shown: Flag, C-terminal, kept
For B1, the “stoichiometry N” value in data set [3] was 2 and 4.
